Experimental data reported in publication PMC3639893, “Characterization of a Novel Metal-Dependent D-Psicose 3-Epimerase from Clostridium scindens 35704” (PLoS ONE, 2013).

Target: the molecule itself
Experiment: SEC; gel filtration of the purified native enzyme, buffer and standards not told

B1: D-psicose 3-epimerase from Clostridium scindens ATCC 35704 (hypothetical protein CLOSCI_02528) (enzyme, UniProt B0NGC5 1-289, looked up)
chain: MKHGIYYAYWEQEWAADYKRYVEKAAKLGFDILEVGAAPLPDYSAQEVKELKKCADDNGIQLTAGYGPAFNHNMGSSDPKIREEALQWYKRLFEVMAGLDIHLIGGALYSYWPVDFATANKEEDWKHSVEGMQILAPIASQYGINLGMEVLNRFESHILNTSEEGVKFVTEVGMDNVKVMLDTFHMNIEESSIGDAIRHAGKLLGHFHTGECNRMVPGKGRTPWREIGDALREIEYDGTVVMEPFVRMGGQVGSDIKVWRDISKGAGEDRLDEDARRAVEFQRYMLEWK
notes: D-psicose 3-epimerase (hypothetical protein CLOSCI_02528, protein ID ZP_02432283) of Clostridium scindens ATCC 35704; full-length synthetic gene cloned NdeI/XhoI into pET-22b(+); No removal of the C-terminal 6xhistidine tag is described; Metal-free after dialysis against EDTA; Subunit about 32 kDa by SDS-PAGE, native enzyme about 125 kDa by gel filtration; also called C. scindens DPEase; DPEase
- stoichiometry N: 4
